Target: microtubules polymerised from bovine brain tubulin (taxol-stabilised) (bovine) (UniProt Q6B856)
Test: stopped-flow mant-ADP release kinetics; kinesin·mant-ADP (1:1) mixed with varying microtubule concentrations plus MgATP, 298 K; fitted rate constants against microtubule concentration; apparent

K0.5 (apparent microtubule dissociation constant): 21.3 µM
Substance: N255K point mutant of the human monomeric kinesin K349 construct (from UniProt P33176 1-349) (domain or fragment)

Source: article PMC4383081
